Reference: US11124558B2, “Use of tetranectin and peptide agonists to treat inflammatory diseases” (The Feinstein Institutes for Medical Research, priority 2017, dated 2021)

Key:
HMGB1 = target: T1, HMGB1 (Homo sapiens, UniProt P09429); experiment: BIAcore surface plasmon resonance assay of HMGB1-TN interaction; details: TN immobilized on CM5 chip, HMGB1 as analyte; read-out: estimated (apparent) Kd of HMGB1 binding to TN
T1 sequence (P09429 1-215): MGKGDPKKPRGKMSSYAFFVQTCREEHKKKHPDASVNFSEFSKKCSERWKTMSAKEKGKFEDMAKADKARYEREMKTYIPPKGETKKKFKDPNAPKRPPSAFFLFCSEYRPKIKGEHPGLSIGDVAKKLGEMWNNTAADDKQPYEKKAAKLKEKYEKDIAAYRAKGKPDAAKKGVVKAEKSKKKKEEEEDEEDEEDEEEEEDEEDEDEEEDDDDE
Experimental: FIG. 11: BIAcore Surface Plasmon Resonance Assay of HMGB1-TN Interaction. Recombinant TN was immobilized on the sensor chip, and HMGB1 was applied as an analyte at different concentrations. The response units were recorded over time, and the binding affinity was estimated as the apparent Kd.
Effects of TN supplementation on the sepsis-induced coagulation. This laboratory has recently discovered that some pharmacological agents (e.g., tanshinones) inhibit HMGB1 release by facilitating its internalization into macrophage cytoplasmic vesicles via the clathrin- and caveolin-dependent endocytosis. Similarly, some endogenous proteins (e.g., haptoglobin) can also capture HMGB1 to enhance its cellular uptake through a CD163 receptor-mediated endocytosis. Thus it is determined whether TN can capture HMGB1 and enhance its internalization into macrophages/monocytes. The TN-HMGB1 interaction is investigated by employing the surface plasmon resonance (SPR) technology as previously described. Briefly, the highly purified recombinant TN or HMGB1 is covalently immobilized on a CM5 chip, and HMGB1 or TN is applied to the chip at various concentrations, before the SPR response will be monitored using a BIAcore system as previously described.

HMGB1 release = experiment: LPS/SAA-induced HMGB1 release, summary statement (cells not specified); assay type: cell-based
[1] = tested on: lethal sepsis (CLP), Balb/C mice; experiment: Lethal sepsis by cecal ligation and puncture (CLP), survival in mice; assay type: in vivo; details: male Balb/C mice, given intraperitoneally, survival monitored more than two weeks
Experimental: (§1) FIG. 6A-6C: Recombinant TN protected mice against lethal endotoxemia and sepsis. Male Balb/C mice were subjected to lethal endotoxemia (LPS, 5 mg/kg, i.p., Panel A) or sepsis by cecal ligation and puncture (CLP, Panel B, C), and recombinant TN produced in HEK293 (Panel A, B) or E. coli (Panel C) was given intraperitoneally at indicated dosing regimens. Animal survival rates were monitored for more than two weeks to ensure no later death. Shown in Panel B and C is a summary of two independent experiments with similar results.
(§2) FIG. 9: N-terminal deletion TN mutant protected mice against lethal sepsis. Male Balb/C mice were subjected to lethal sepsis by cecal ligation and puncture (CLP), and recombinant deletion mutant (ΔTN) was given intrapeitoneally at indicated dosing regimens. Animal survival rates were monitored for more than two weeks to ensure no later death. Shown was a summary of two independent experiments with similar results.
as §2, with “10:” for “9: N-terminal deletion”, “peptide agonist (P11)” for “mutant”, “TN peptide agonist, (P11, […]) (SEQ ID NO:11)” for “recombinant deletion mutant (ΔTN)”, “N=8-18 animals per group.” for “similar results.”
FIG. 13A-13B: Tetranectin peptide agonists (P2 and P2-M/Nle) protected mice against lethal sepsis. Male Balb/C mice were subjected to lethal sepsis by cecal ligation and puncture (CLP), and TN peptide agonist, P2 (55-KVHMKCFLAFTQTKTF-70) (13A) (SEQ ID NO:2) or P2-M/Nle (54-TKVH(Nle)KSFLAFTQTKT-69) (13B) (SEQ ID NO:13) was given intraperitoneally at indicated dosing regimens. Animal survival rates were monitored for more than two weeks to ensure no later death. Shown was a summary of independent experiment with N=10 animals per group. The Kaplan-Meier method was used to compare the difference in mortality rates between groups. *, P<0.05 versus “CLP+Vehicle” group.
(§3) Effects of TN or peptide agonist on LSI. Balb/C mice (both male and female, 7-8 weeks, 20-25 g) are subjected to lethal endotoxemia or sepsis as described above, and the recombinant TN is injected (i.p.) at various doses and time points (2, 24, and 48 h) after the onset of endotoxemia or sepsis. Their effects on the outcomes of LSI is assessed by comparing the long-term (two-week) survival rates between the TN-treated groups with saline vehicle-treated controls. By varying the time points (e.g., 2, 12, 24 or 36 h) when the first dose of TN will be given to animals, the therapeutic windows for the TN-based therapy is estimated. […] It will be critical to continue these exciting experiments using other dosing regimens to further validate TN's protective role in LSI.
To explore the therapeutic potential of the TN-based strategies, the efficacy of TN-specific peptide agonists that would recapitulate the HMGB1-inhibiting capacities is tested using both animal models of lethal endotoxemia and sepsis. A series of peptide agonists have been designed, and chemically synthesized or biologically expressed as recombinant peptide (Table 1, FIG. 7). Peptide agonists will be given to the endotoxemic or septic mice intraperitoneally at various doses and time points after the onset of endotoxemia or sepsis. Their effects on the outcomes of LSI is assessed by comparing the long-term (two-week) survival rates between the peptide agonist groups and the saline vehicle-treated controls.
TN-specific peptide agonists are tested that would recapitulate the HMGB1-inhibiting capacities using both animal models of lethal endotoxemia and sepsis. Peptide agonists are given to the endotoxemic or septic mice intraperitoneally at various doses and time points after the onset of endotoxemia or sepsis. […]

[2] = tested on: lethal endotoxemia, Balb/C mice; experiment: Lethal endotoxemia (LPS) survival in mice; assay type: in vivo; details: LPS 5 mg/kg i.p., male Balb/C mice, TN given i.p., survival monitored more than two weeks
Experimental: as §1, §3
Effects of TN or peptide agonist supplementation on LSI. Balb/C mice (both male and female, 7-8 weeks, 20-25 g) are subjected to lethal endotoxemia or sepsis as described above, and the recombinant TN will be injected (i.p.) at various doses and time points (2, 24, and 48 h) after the onset of endotoxemia or sepsis. Their effects on the outcomes of LSI will be assessed by comparing the long-term (two-week) survival rates between the TN-treated groups with saline vehicle-treated controls. By varying the time points (e.g., 2, 12, 24 or 36 h) when the first dose of TN will be given to animals, the therapeutic windows for the TN-based therapy will be estimated.

B1: tetranectin (protein, listed as Homo sapiens)
chain: EPPTQKPKKIVNAKKDVVNTKMFEELKSRLDTLAQEVALLKEQQALQTVCLKGTKVHMKCFLAFTQTKTFHEASEDCISRGGTLGTPQTGSENDALYEYLRQSVGNEAEIWLGLNDMAAEGTWVDMTGARIAYKNWETEITAQPDGGKTENCAVLSGAANGKWFDKRCRDQLPYICQFGIV
Question: Which Kd (HMGB1) does the source give for B1 here?
Answer: 570 nM

Question: What about the “attenuation of LPS/SAA-induced HMGB1 release” value (HMGB1 release) of the same molecule?
Answer: dose-dependently attenuated

Question: What about the “protection against lethal sepsis (animal survival)” value (“protection against lethal sepsis” below) [1] of the same molecule?
Answer: significant protection

Question: And the “protection against lethal sepsis” value ([1]; listed as Recombinant TN)?
Answer: protected

Question: And the “protection against lethal sepsis” value ([1]; listed as recombinant TN)?
Answer: significant protection

Question: And the “protection against lethal endotoxemia (animal survival)” value (“protection against lethal endotoxemia” below) [2]?
Answer: significant protection

Question: What about the “protection against lethal endotoxemia” value ([2]; listed as Recombinant TN) of the same molecule?
Answer: protected

Question: What about the “protection against lethal endotoxemia” value ([2]; listed as recombinant TN) of the same molecule?
Answer: significant protection
